From paper PMC4528719, “Functional role of dimerization and CP190 interacting domains of CTCF protein in Drosophila melanogaster” (BMC Biology, 2015)
Each block holds one molecule with its values, some of them ahead of it.

Columns and labels:
[1] = biological target: T1, thioredoxin-tagged CP190-BTB (Drosophila); experiment: cross-linking; CP190-BTB constant at 20 μM, alone or mixed with CTCF-CTD at stated molar ratios, 2 h (legend of Fig. 4b: 1 h) at room temperature, then glutaraldehyde; buffer B; SDS-PAGE, Coomassie or silver staining
T1 sequence (Q24478 whole entry, looked up): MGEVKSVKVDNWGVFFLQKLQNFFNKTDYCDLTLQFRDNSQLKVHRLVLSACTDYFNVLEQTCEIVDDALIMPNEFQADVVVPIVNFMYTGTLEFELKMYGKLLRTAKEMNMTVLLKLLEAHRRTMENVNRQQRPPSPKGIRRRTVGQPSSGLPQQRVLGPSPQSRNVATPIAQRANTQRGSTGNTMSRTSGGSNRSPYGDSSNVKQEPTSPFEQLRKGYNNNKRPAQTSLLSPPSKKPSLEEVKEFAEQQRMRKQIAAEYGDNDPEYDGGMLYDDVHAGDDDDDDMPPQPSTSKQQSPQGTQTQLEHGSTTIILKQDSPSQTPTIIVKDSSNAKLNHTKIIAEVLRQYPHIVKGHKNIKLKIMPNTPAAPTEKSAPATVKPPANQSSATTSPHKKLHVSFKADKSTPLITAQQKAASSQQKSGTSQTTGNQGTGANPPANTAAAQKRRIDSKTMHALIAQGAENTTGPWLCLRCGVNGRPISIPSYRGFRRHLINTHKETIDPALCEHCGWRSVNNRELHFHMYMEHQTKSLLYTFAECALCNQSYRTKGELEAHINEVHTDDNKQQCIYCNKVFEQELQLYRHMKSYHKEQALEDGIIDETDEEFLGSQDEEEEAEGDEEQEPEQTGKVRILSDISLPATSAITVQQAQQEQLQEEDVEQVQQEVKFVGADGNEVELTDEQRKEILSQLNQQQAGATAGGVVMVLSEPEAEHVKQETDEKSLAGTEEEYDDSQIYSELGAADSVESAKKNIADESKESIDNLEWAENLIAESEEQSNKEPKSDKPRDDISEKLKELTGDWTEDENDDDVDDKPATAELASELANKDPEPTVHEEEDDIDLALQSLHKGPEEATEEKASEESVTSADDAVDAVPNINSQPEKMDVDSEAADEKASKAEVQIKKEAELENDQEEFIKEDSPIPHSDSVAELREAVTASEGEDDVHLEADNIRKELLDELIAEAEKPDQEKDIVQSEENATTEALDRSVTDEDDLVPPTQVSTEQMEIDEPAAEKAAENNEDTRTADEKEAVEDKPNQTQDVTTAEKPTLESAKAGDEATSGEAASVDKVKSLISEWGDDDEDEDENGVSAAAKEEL

[2] = biological target: the molecule itself; experiment: cross-linking; one protein alone at 5 μM, increasing glutaraldehyde, 10 min at room temperature, 20 mM HEPES-KOH pH 7.7, 150 mM NaCl, 20 mM imidazole, 1 mM β-mercaptoethanol; SDS-PAGE, silver staining
[3] = biological target: T2, dCTCF–CTD 612–818 protein (Drosophila melanogaster, UniProt Q9VS55 612-818); experiment: pull-down; GST–CP190 fragments on glutathione agarose, recombinant dCTCF-CTD in solution; 2 h room temperature, buffer C; washes with 500 mM NaCl (Fig. 3f); conditions: both partners purified
T2 construct: also called CTD protein; source: E. coli BL21, purified (Ni-NTA)
T2 sequence (looked up): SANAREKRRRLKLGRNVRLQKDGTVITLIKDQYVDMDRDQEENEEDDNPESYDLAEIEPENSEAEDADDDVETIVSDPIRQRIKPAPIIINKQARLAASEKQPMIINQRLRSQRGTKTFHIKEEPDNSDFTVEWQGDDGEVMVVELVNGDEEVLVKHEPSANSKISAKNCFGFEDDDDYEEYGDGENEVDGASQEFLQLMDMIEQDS

stoichiometry N [1]: 2
Molecule: thioredoxin-tagged CP190-BTB (domain or fragment)

B1: dCTCF NTD 70–163 (domain or fragment, Drosophila melanogaster, UniProt Q9VS55 70-163, looked up)
chain: HAEEAEEEEEDDEDKYFIDDEGNCYIKTTPKKQKELQKKLKQAAAKPGKATRSVVSTATNKSINLRPAKSTPKATTSKPPPEPKAISVRPARAA
notes: dCTCF, Drosophila melanogaster, residues 70-163; source: E. coli BL21, purified (Ni-NTA)
binding result [2]: binds

stoichiometry N [1]: 2 BTB per CTD
B2: dCTCF–CTD 612–818 protein (domain or fragment)
chain: T2 sequence (looked up)

binding result [3]: binds
B3: GST–CP190 BTB domain (1–126) (domain or fragment, Drosophila, UniProt Q24478 1-126, looked up)
chain: MGEVKSVKVDNWGVFFLQKLQNFFNKTDYCDLTLQFRDNSQLKVHRLVLSACTDYFNVLEQTCEIVDDALIMPNEFQADVVVPIVNFMYTGTLEFELKMYGKLLRTAKEMNMTVLLKLLEAHRRTM

B4: dCTCF NTD 125–180 (domain or fragment, Drosophila melanogaster, UniProt Q9VS55 125-180, looked up)
chain: STATNKSINLRPAKSTPKATTSKPPPEPKAISVRPARAAAAKAKQSAMPPPPALVV
notes: dCTCF, Drosophila melanogaster, residues 125-180; source: E. coli BL21, purified (Ni-NTA)
binding result [2]: binds

B5: thioredoxin NTD 1–205 fusion protein of dCTCF (domain or fragment, Drosophila melanogaster, UniProt Q9VS55 1-205, looked up)
chain: MPRRTKKDEDPEDLQTFLNNFHKEIEGNSDEKVVNTILEAISAEAIDLDENGAEAGGSKPMEEAEADLDHAEEAEEEEEDDEDKYFIDDEGNCYIKTTPKKQKELQKKLKQAAAKPGKATRSVVSTATNKSINLRPAKSTPKATTSKPPPEPKAISVRPARAAAAKAKQSAMPPPPALVVKVPAPRGRPRKNPVIPKPEPMDLER
notes: pET32a(+) vector; purified on Ni-NTA, so a His tag is likely present; source: E. coli BL21, purified (Ni-NTA)
binding result [2]: binds

B6: thioredoxin-tagged dCTCF NTD 1–163 (domain or fragment, Drosophila melanogaster, UniProt Q9VS55 1-163, looked up)
chain: MPRRTKKDEDPEDLQTFLNNFHKEIEGNSDEKVVNTILEAISAEAIDLDENGAEAGGSKPMEEAEADLDHAEEAEEEEEDDEDKYFIDDEGNCYIKTTPKKQKELQKKLKQAAAKPGKATRSVVSTATNKSINLRPAKSTPKATTSKPPPEPKAISVRPARAA
notes: dCTCF, Drosophila melanogaster, residues 1-163; pET32a(+) vector; purified on Ni-NTA, so a His tag is likely present; source: E. coli BL21, purified (Ni-NTA)
stoichiometry N [2]: ~4
